{"source": "the DeepSol protein solubility set"}
{"experiment": "soluble on expression in E. coli; label from the status in PepcDB or PDB records"}
{"sequence": "SNAMKNYTLISPCFFGMEKMLAREITNLGYEIIKTEDGRITYKTDEFGIAKSNMWLRCAERVHLKIAEFEAKSFDELFENTKRINWSRYIPYGAQFPISKASSIKSKLYSTPDVQAIVKKAIVESLKKSYLEDGLLKEDKEKYPIFVFIHKDKVTISIDTTGDALHKRGYREKANKAPIRETLAAGLIYLTPWKAGRVLVDPMCGSGTILIEAAMIGINMAPGLNREFISEKWRTLDKKIWWDVRKDAFNKIDNESKFKIYGYDIDEESIDIARENAEIAGVDEYIEFNVGDATQFKSEDEFGFIITNPPYGERLEDKDSVKQLYKELGYAFRKLKNWSYYLITSYEDFEYEFGQKADKKRKLYNGMLKTNFFQYPGPKPPRNNK", "soluble on expression in E. coli": "soluble"}
{"sequence": "SNAMKQLSGLLGELRQKLCAGFPEQAGIQQLIFPAPGLVGRQLLEWLTAQTHFPQFYWRHRDNHEEAAVCGQTRSFADMKDADDFIQQNPDANGLRIWGLNAFEPVMVFGQLTDNGLVSGKNAQASFLFLPRLEILRRGKKTSLTLNLSSETSLQKDALQAITFIDQLMAARALPVLNARIQHSSHTPGYPQWRNLIQQALNDIEQQKLDKVVLARTTTLTLNKPLSCAAFMAASRQVNHRCYHFMLRFDDRQAFLGSSPERLYLRQQLHLETEALAGTVSNLDSDPQAAVLADWLMHDEKNQRENLLVVDDICQRLQGGVTAVDVMPPEIIRLRKVQHLRRRICAQLSRASDTDCLQRLQPTAAVAGLPREAARQFIAKHELFSRGWYAGSAGYLSLKRTEFSVALRSARVDGQQIHLYAGAGIVAGSDAEQEWQEIDNKSAGLQSLLEHEAQPVKA", "soluble on expression in E. coli": "soluble"}
{"sequence": "SNAMMIKASTNEFRFCFKQMNKSQHELVLGWIHQPHINEWLHGDGLSNTIKDLHEFLNDGKPWATHWIAYDNEIPFAYLITSEIEKSEEYPDGAVTLDLFICRLDYIGKGLSVQMIHEFILSQFSDTKIVLINPEISNERAVHVYKKAGFEIIGEFIASWHPVPHYKMKLCIEDLKKQRLSA", "soluble on expression in E. coli": "soluble"}
{"sequence": "SNAMNDIVASTQLPNTIKTITNDLRKLGLKKGMTVIVHSSLSSIGWISGGAVAVVEALMEVITEEGTIIMPTQSSDLSDPKHWSRPPVPEEWWQIIRDNVPAFEPHITPTRAMGKVVECFRTYPNVVRSNHPLGSFAAWGRHAEEITVNQSLSMSLGEESPLRKIYDLDGYILLIGVGYDSNTSVALSEVRSGACELIKVGAPIIENGERVWKEFVDMDYDSDKFVEIGVEFEQKGTVTMGKIGNAKCRLMKQRDIVDFGTEWFRKKN", "soluble on expression in E. coli": "soluble"}
{"sequence": "SNAMPLPKSLKYGDTIGIYSPSSPVTYTSPKRFERAKSYLLQKGFHILEGSLTGRYDYYRSGSIQERAKELNALIRNPNVSCIMSTIGGMNSNSLLPYIDYDAFQNNPKIMIGYSDATALLLGIYAKTGIPTFYGPALVPSFGEFEPFVDDTYKYFLETLLHDQALPYNIKQPLFWSDEFINWEEKTKEKELRPNNWISVTNGQATGRVIGGNLNTIQGIWGSPYMPCIQEGDILFIEDSSKDAATIERSFSFLKINGVFDKVSGIILGKHEQFDDCGTNRKPYEILLEVLQNQRIPLLADFDCCHTHPMITMPIGVQVKMDATNKTIHILEKWKI", "soluble on expression in E. coli": "soluble"}
{"sequence": "SNAMSSEELEQVWSNIKSEARALAECEPMLASFFHATLLKHENLGSALSYILANKLANPIMPAIAIREVVEEAYRSDAHMIVSAARDILAVRLRDPAVDKYSTPLLYLKGFHALQAYRIGHWLWAQDRKALAIYLQNQVSVAFGVDIHPAATIGCGIMLDHATGIVIGETAVVENDVSILQSVTLGGTGKTSGDRHPKIREGVMIGAGAKILGNIEVGRGAKIGAGSVVLQSVPAHTTAAGVPARIVGKPESDKPSLDMDQHFNGSIQGFEYGDGI", "soluble on expression in E. coli": "soluble"}
{"sequence": "SNAMSVIKIEKALKLDKVIFVDVRTEGEYEEDHILNAINMPLFKNNEHNEVGTIYKMQGKHEAIQKGFDYVSYKLKDIYLQAAELALNYDNIVIYCARGGMRSGSIVNLLSSLGVNVYQLEGGYKAYRNFVLEY", "soluble on expression in E. coli": "soluble"}
{"sequence": "SNAMSVQLVKGVNLHVIPTEKYKTVRLLVRFNTRLNHETITKRTLLSSLMETNSLNYPNQVKLSERLAELYGASFGIGVSKKGNQHWFNISMNIVNDHYLQDSQVLAEAVDFLKEIIFAPNIQAGQFEAETFQREKENLKAYLESIVEDKQTYASLALQSVYFNQSEDQKIPSFGTVAALAEETAASLAAYYQKMLAEDQVDIFVLGDVNEAELVPLFKQLPFTPREEGKAAIFYNQPIRNVIEERTEREVLAQSKLNLAYNTDIYYGDSYYFALQVFNGIFGGFPHSKLFMNVREKEHLAYYASSSIDTFRGFMTVQTGIDGKNRNQVLRLISTELENIRLGKIRELEIEQTKAMLKNQYILALDNAGAWLEKEYLNELMPQTMLTAEEWIARINAVTIPEIQEVAKRLELQAIFFLEGETEND", "soluble on expression in E. coli": "soluble"}
{"sequence": "SNAMTLTALNAISPIDGRYVNKTRALSPYFSEFALTYYRLMVEIKWFESLAANDTIPEVPALDNKARKFLSDLISNFNESEAEKIKEFEKQTNHDVKAVEYYLQDKFQENEQLKSCVAFIHFACTSEDINNLAYALMIKQAIAQVIQPTIAEIMGSITLLGKQHADVAMLSRTHGQPATPTTMGKELVNFVARLKRPQQQLAEVLIPAKFNGAVGNYNAHVAAYPEVDWRKHCANFVTSLGLSFNAYTTQIEPHDGIAEVSQIMVRINNILLDYTQDIWSYISLGYFKQKTIAEEVGSSTMPHKVNPIDFENAEGNLGLSNALFIHFANKLTQSRMQRDLSDSTVLRNLGVAFSYSLIAYHSVAKGNDKLQINKSALQKDLSENWEVLAEAIQTVMRRYNEPNAYEQLKELTRGQMIDAENLKKFIKTLSIPEEAKAELMKLTPETYTGLATQLVKAFS", "soluble on expression in E. coli": "soluble"}
{"sequence": "SNANFNRFTQRAKKAIDLAFESAKSLGHNIVGSEHILLGLLREEEGIAAKVLSKVGFTEAYLEGKIVDMEGKGEEISEDIVLSPRSKQILELSGMFANKLKTNYIGTEHILLAIIQEGEGIANKILNYAGVNDRTLAQLTIDMMG", "soluble on expression in E. coli": "soluble"}
{"sequence": "SNASGQQVHRLLGNKLELASTGQTIYHQDINLNNHPWIGDHRVYDTPVIPGVSYIAMTLAAVGVPAAVEDINFQQPLFLAESNTTRETQLMLHTADNVGKQFVEVFSRDGAKQEEWQQHASMSVSENPPPPPTLSVDIPALCEQLRPLDTDTLTEIYASISLVYGPMLQAVRQAWIGEETSLLEIEVPKALAFQLAGEPIHPVLIDACTRLTPDLFDFSSDSGVFWAPWRVKEMTLSHPTPSRFYAYVEEPSRVNEQLQTRSYDIQLLDETGQAFGRINGFTVKRAPSQLFLK", "soluble on expression in E. coli": "soluble"}
{"sequence": "SNASKEKREKLEAYQHLFYLLQTNPTYLAKLIFQMPQNKSTKFMDSVIFTLYNYASNQREEYLLLRLFKTALQEEIKSKVDQIQEIVTGNPTVIKMVVSFNRGARGQNALRQILAPVVKEIMDDKSLNIKTDPVDIYKSWVNQMESQTGEASKLPYDVTPEQALAHEEVKTRLDSSIRNMRAVTDKFLSAIVSSVDKIPYGMRFIAKVLKDSLHEKFPDAGEDELLKIIGNLLYYRYMNPAIVAPDAFDIIDLSAGGQLTTDQRRNLGSIAKMLQHAASNKMFLGDNAHLSIINEYLSQSYQKFRRFFQTACDVPELQDKFNVDEYSDLVTLTKPVIYISIGEIINTHTLLLDHQDAIAPEHNDPIHELLDDLGEVPTIESLIGESS", "soluble on expression in E. coli": "soluble"}
{"sequence": "SNATAFVPALVASGLPNEKFCFEGFLPQKKGRMTKLKSLVDEHRTMVFYESPHRLLKTLTQFAEYFGPERQVSVSREISKIHEETVRGTLSELIEHFTATDPRGEIVIVLAGIDD", "soluble on expression in E. coli": "soluble"}
{"sequence": "SNATIYRMVDLPVIQPRLCTHARWPAPVYGLLVDPSLPSNPQWQNGRVHVDGTLLGTTPISGSWVSCFAAEAAYEFQSGTGEVATFTLIEQDGSAYVPGDRAAPLGYPDFSGQLEIEVQTETTKTGDKLKVTTFEMILGPTTNADQAPYQGRVFASVTAAASLDLVDGRVRAVPRSIYGFQDTIPEYNDGLLVPLAPPIGPFLPGEVLLRFRTYMRQIDTADAAAEAIDCALPQEFVSWFASNAFTVQSEALLLRYRNTLTGQLLFECKLYNEGYIALSYSGSGPLTFPTDGIFEVVSWVPRLYQLASVGSLATGRMLKQ", "soluble on expression in E. coli": "soluble"}
{"sequence": "SNDFNWTSVFNLSHNRNKIVSLNGLLDQTIEGTWFIHKVGLPYHTFYVKEFAGVDPLTGSAQYYLNTKNEDGSYNRELTTDAAKAESIPYKTATPKVSGGFTNILNYKWIDLTFTLTYSLGGYSFDKLGTYIENGSSSIYSSRYNLPAYMMNRWQKPGDQTDIPRFVYGEPATSTNSSRYIHSTDHLRLKNFTLGFTLPNQWTQKLMIDKVRVYFSGNNLLTWAKWKQYDPETPVNGEVFCEAPAMRTFSFGAQLSF", "soluble on expression in E. coli": "not soluble"}
{"sequence": "SNLYTERVLSVHHWNDTLFSFKTTRNPGLRFKTGQFVMIGLEVDGRPLMRAYSIASPNYEEHLEFFSIKVPDGPLTSRLQHLKEGDELMVSRKPTGTLVHDDLLPGKHLYLLSTGTGMAPFLSVIQDPETYERYEKVILVHGVRWVSELAYADFITKVLPEHEYFGDQVKEKLIYYPLVTREPFRNQGRQTDLMRSGKLFEDIGLPPMNPQDDRAMICGSPSMLEETSAVLDSFGLKISPRMGEPGDYLIERAFVEK", "soluble on expression in E. coli": "soluble"}
{"sequence": "SPVTKCPRKVEPPWKGWDRKAQKNGLRHQVFAVNGDHYVGEWKGNLKHGKGTQVWKKSGAVYEGDWKFGKRDGYGSLSHPDPETGKLRRVYSGWWKGDKKSGYGIQFFGPKEYYEGEWCNNQRSGWGRMYYNNGDIYEGQWQNDKPEGEGMLRLKNGNRYEGIWERGMKNGHGRFFHLDHGQLFEGYWVDNVAKCGTMIDFGRDEAPEPTQFPIPKVEILDPDGVLKEALDKLMKPEEEEG", "soluble on expression in E. coli": "soluble"}
{"sequence": "SQDEVETEVIIKDIFKQGKICFIPQYQFQSNHMDMVRLTSPEEIALLPKTSWNIHQPGEGDVREEALSTGGLDLIFLPGLGFDKDGNRLGRGKGYYDTYLKRCVQHQEVKPYTMALAFKEQICPQIPVDEHDMKVDEVLYEDSPAS", "soluble on expression in E. coli": "not soluble"}
{"sequence": "SQFVLQDLQDATLGSLLSSLMQHCDPPQRKYPLEKGTPPPWWPTGNEEWWVKLGLPKSQSPPYRKPHDLKKMWKVGVLTAVINHMLPDIAKIKRHVRQSKCLQDKMTAKESAIWLAVLNQEESLIQQ", "soluble on expression in E. coli": "soluble"}
{"sequence": "SQGRKPSSKLISFQRKLANETEIQKLNLSQSDYVVRMERVRYADKVPLVYEVASIPENLIKGFEQSEVTEHFFKTLTENGYEIGKSQQTIYARNASERVASHLEVNAGHAILALTQVSYFTDGKPFEYVHGQYVGDRFE", "soluble on expression in E. coli": "not soluble"}
{"sequence": "SRRLLNDSTGRIYQRVGKEGEKLKEEPQDLDLVWPPRLNSSAEAPQSLHPSSRGVWNELPPQSGQFSGQYGTRSRTFQSQPHPTTSSNGMVVNKHSEGSHGGELPVVNSSAGSNCCTCNCQSTLQAILQELKTMRKLMQIQAVGTQNRQQPPISLICSQRTAVSRKRNKKKKVPPKTVEPLTVKQKPSGSEMEKKSVVASELSALQAAEHTSPEESRVLGFGIVLESPSSDPEVQLAEGFDVFMPKSQLDSILSNYTRSGSLLFRKLVCAFFDDKTLANSLPNGKRKRGLNDNRKGLDQNIVGAIKVFTEKYCTANHVDKLPGPRDWVQILQDQIKLARRRLKRGSEIADSDERLDGIALPPTVV", "soluble on expression in E. coli": "not soluble"}
{"sequence": "SSAESASQIPKGQVDLLDFIDWSGVECLNQSSSHSLPNALKQGYREDEGLNLESDADEQLLIYIPFNQVIKLHSFAIKGPEEEGPKTVKFFSNKEHMCFSNVNDFPPSDTAELTEENLKGKPVVLKYVKFQNVRSLTIFIEANQSGSEVTKVQKIALYGST", "soluble on expression in E. coli": "soluble"}
{"sequence": "SSAMGAGPDHLFNLRNNFYLGAYQTAINNSEIANLSPENAVERDCLVFRSYIALGSYQLVISEIDESAATPLQAVKLLAMYLSTPQNKESTISSLKEWLADSTIGNNDTLRLIAGIIFMHEEDYNETLKHTHAGGTMDLYALNVQIFIKMHRAEYAEKQLRVMQQIDEDHTLTQLASAWLNLAVGGSKIQEAYLIFEDFSEKYPMTCLILNGKAVCCMQMGNFDEAETLLLEALNKDAKDPETLANLVVCSLHVGKSSSRHLSQLKLSHPEHILVKRVSSAEDNFERAVQLVA", "soluble on expression in E. coli": "soluble"}
